Results: PMC6007958, “Identification, characterization and application of a new peptide against anterior gradient homolog 2 (AGR2)” (Oncotarget, 2018)
Positions count from the first letter of the chain named. In names and notes the source's numbering stands. No end group written: not given here. *: point of attachment. Biotin = O=C1N[C@H]2[C@H](CS[C@H]2CCCCC(=O)*)N1

B1: H10 peptide (biotin-GGGSGMKMQVRIYLV) (peptide)
peptide: Biotin-GGGSGMKMQVRIYLV
B2: Δ27 AGR2 (recombinant anterior gradient protein 2 without the ER leader sequence), O95994 E96K (protein)
chain: GAKKDTKDSRPKLPQTLSRGWGDQLIWTQTYEEALYKSKTSNKPLMIIHHLDECPHSQALKKVFAENKKIQKLAEQFVLLNLVYETTDKHLSPDGQYVPRIMFVDPSLTVRADITGRYSNRLYAYEPADTALLLDNMKKALKLLKTELGLNDIFEAQKIEWHE
B3: Δ27 AGR2 (recombinant anterior gradient protein 2 without the ER leader sequence), O95994 E60Q (protein)
chain: B2 chain with E33Q, K69E

Tests used:
[1] = system: EGFR phosphorylation in PC3 cells; assay: Western blot of EGFR / p-EGFR-Y1068; type: cell-based; settings: PC3 cells dosed 16 hours, p-EGFR-Y1068 by western blot
Procedure: We sought to ascertain a potential mechanism leading to decreased viability of cells upon exposure to H10 by examining cancer related pathways that have been linked with AGR2. […] We investigated the impact of H10 on EGFR phosphorylation as a possible mechanism of action. PC3 cells were dosed with H10 for 16 hours and the levels of EGFR and p-EGFR-Y1068 were analyzed by western blot (Figure 5C). […] Since amphiregulin is downstream of the HIPPO pathway, we also assessed the phosphorylation of the HIPPO effector, YAP1. We hypothesized that H10 may indirectly downregulate EGFR phosphorylation by altering activity of YAP1 (phosphorylation of YAP1 prevents […] translocation to the nucleus and transcription of amphiregulin [24]). Cell lysates from PC3 cells treated with H10 and the scrambled peptide were subject to immunoblot (Figure 5C).

AGR2 = target: T1, AGR2 (Homo sapiens, UniProt O95994); assay: SPR competition, AGR2 binding to immobilized H10 in presence of free peptide; settings: peptide 500 nM co-/pre-incubated with AGR2 500 nM
T1 construct: histidine tag (N, cleaved yes); made in house; host or cells: E. coli BL21 de3
T1 sequence (O95994 with tags, fused parts or gaps): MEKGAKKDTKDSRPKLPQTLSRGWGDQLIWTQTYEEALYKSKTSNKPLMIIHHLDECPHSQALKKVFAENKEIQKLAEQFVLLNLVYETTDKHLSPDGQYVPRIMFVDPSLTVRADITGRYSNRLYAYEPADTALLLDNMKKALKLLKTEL
Procedure: SPR measurements were carried out on a Biacore T200 (GE) and data was analyzed using Biacore T200 Evaluation Software (version 1.0). Data was analyzed for a 1:1, two-stage and bivalent binding model. Average affinities were obtained from independent experimental repeats and errors are given as mean absolute deviations. Measurements were carried out at flow rates of 20 μL/min and confirmed experimentally to avoid mass transfer limitation. For direct binding studies of AGR2 to biotinylated H10-peptide a carboxymethyl-Dextran coated CM5 chip was coated with Streptavidin using standard amine coupling chemistry. Residual activated carboxyl groups were blocked with 1,2-Ethylenediamine. In contrast to conventional ethanolamine blocking, this procedure introduces positive charges to partially compensate the negative surface charge and reduce unspecific binding by AGR2. Biotinylated peptide was loaded and remaining free biotin sites were blocked by incubating the chip in biotin containing buffer over night to allow for biotinylated peptides to be used in competition assays. Optimal binding and minimal unspecific interaction was found for a running buffer consisting of Tris (100 mM, pH 7.5), NaCl (150 mM) and MgCl2 (10 mM).

MDA-MB-231 cells = assay: Oris exclusion zone cell migration assay; type: cell-based; settings: MDA-MB-231, 48 hours; H10 5 μmoles/L (10 μg/ml), taxol 5 nM, control peptide 10 μg/ml
Procedure: (§1) Cells were seeded into Oris™ 96-well plate with silicon stoppers in place (CMA1.101). Cell density was optimized for each cell type, PC-3 and MDA-MB-231 were seeded at 2.5×10^5 cells/mL or 6×10^4 cells/mL. Stoppers were removed 12 hours post seeding according to the manufacturer's protocol and treatments were added, Taxol (5 nM) (Selleckchem), H10 peptide (10 μg/ml), scrambled peptide (10 μg/ml), mouse anti-AGR2 antibody (1:50 of 2 μg/ml) (Santa Cruz Biotechnology), mouse-IgG (Santa Cruz Biotechnology), DMSO as control. After 48 hours, growth medium was aspirated and cells were fixed with 4% paraformaldehyde (Alfa Aesar) for 15 minutes at RT and washed with PBS. Cells were stained with Rhodamine phalloidin (Biotium) 1:40 and Hoechst (Invitrogen) 1:10,000 for 20 minutes at RT and washed with PBS.
(§2) Imaging was performed on a Zeiss Observer.Z1 microscope at 2.5x objective with AxioCam MRm camera and Axio Vision 4.8 software. Images were processed using ImageJ software package ( http://rsb.info.nih.gov/ij/) and following the cell migration method previously designed. The data was analyzed using GraphPad Prism 7.

MDA-MB-231 = assay: Luminescent cytotoxicity (ATP viability, CellTiter-Glo) assay; type: cell-based; settings: MDA-MB-231, 48 hours, eight concentrations, 4PL fit, read-out: IC50, cell viability
Procedure: (§3) Cells were seeded into 96-well White with Clear Flat Bottom plates (Costar). Cell density was optimized for each cell type, PC-3 and MDA-MB-231 were seeded at 0.24×10^6 cells/mL or 0.06×10^6 cells/mL. After 12 hours, treatments were added, with the stock concentration for Taxol at 400 nM (Selleckchem), H10 peptide was 200 μg/mL and the control peptide was 200 μg/mL. We tested a total of eight concentrations using three-fold serial dilutions from the stock concentration. After 48 hours of treatment, we used the CellTiter-Glo Luminescent Cell Viability Assay (Promega) according to the manufacturer's protocol. The data was analyzed on Prism software using “log(inhibitor) vs. response” option. IC50 was calculated using the 4PL equation 1 as above.

PC-3 = assay: as above; type: cell-based; settings: PC-3, 48 hours, eight concentrations, 4PL fit, read-out: IC50, cell viability
Procedure: as §3

PC-3 cells = assay: Oris exclusion zone cell migration assay; type: cell-based; settings: PC-3, 48 hours; taxol 5 nM, H10 10 μg/ml, control peptide 10 μg/ml, AGR2 antibody; fluorescent microscopy of cell-free zone
Procedure: as §1, §2

[2] = target: T2, extracellular AGR2 (eAGR2) in spent media of cancer cell lines (human (endogenous in MCF-7 and 22Rv1), UniProt O95994 21-175); assay: cell-based or functional assay
T2 sequence (looked up): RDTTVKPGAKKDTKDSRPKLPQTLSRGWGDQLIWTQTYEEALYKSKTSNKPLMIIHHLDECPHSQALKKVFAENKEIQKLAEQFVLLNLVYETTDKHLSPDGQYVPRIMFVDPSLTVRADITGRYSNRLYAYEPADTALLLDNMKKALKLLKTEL

H10 peptide (biotin-…) = target: T3, H10 peptide (biotin-…); assay: ELISA; settings: chain shown with the change, read off a plot
T3 chain: GGGSGMKMQVRIYLV

[3] = AGR2 100 ng/ml, parent: est. 61
[4] = AGR2 200 ng/ml, parent: est. 76
[5] = AGR2 400 ng/ml, parent: est. 82
[6] = AGR2 600 ng/ml, parent: est. 83
[7] = AGR2 800 ng/ml, parent: est. 91

| Molecule | response (H10 peptide (biotin-…); [3]) | response (H10 peptide (biotin-…); [4]) | response (H10 peptide (biotin-…); [5]) | response (H10 peptide (biotin-…); [6]) | response (H10 peptide (biotin-…); [7]) | also measured |
| --- | --- | --- | --- | --- | --- | --- |
| GGGSG VMLKYMIQRV [scrambled peptide] | – | – | – | – | – | concentration sufficient to downregulate EGFR phosphorylation [1]: > 20 µM |
| Biotin-GSGSGSGSGSGSGSS [control peptide, biotinylated Gly/Ser control peptide, length 15] | – | – | – | – | – | suppression of AGR2 binding to immobilized H10 by free peptide (AGR2): largely ineffective; inhibition of cell migration (MDA-MB-231 cells): did not alter cell migration; IC50 (MDA-MB-231): > 100 µM; IC50 (PC-3): > 100 µM |
| CC(=O)O[C@H]1C(=O)[C@@]2(C)[C@H]([C@H](OC(=O)c3ccccc3)[C@]3(O)C[C@H](OC(=O)[C@H](O)[C@@H](NC(=O)c4ccccc4)c4ccccc4)C(C)=C1C3(C)C)[C@]1(OC(C)=O)CO[C@@H]1C[C@@H]2O [taxol] | – | – | – | – | – | inhibition of cell migration (PC-3 cells): inhibits cell migration of PC-3 cells |
| B1 | – | – | – | – | – | ATP viability assay (CellTiter-Glo), MDA-MB-231 cells, 48 hours, IC50 of H10 [2]: 12 µM; ATP viability assay (CellTiter-Glo), PC-3 cells, 48 hours, IC50 of H10 [2]: 9 µM |
| B2 | 30 % of binding | 27 % of binding | 30 % of binding | 36 % of binding | 55 % of binding | – |
| B3 | 42 % of binding | 42 % of binding | 46 % of binding | 51 % of binding | 57 % of binding | – |
